Laboratory results as given in the supplement of paper PMC10567573.

B1: TRIM43 (parent)
chain: FCDMDKSLLCLLCSNSQEHGAHKH

Variants of: B1
Assay: protein stability index of a GFP-peptide fusion (GPS, HEK-293T) (PSI 1-6); higher = more stable
Details: c terminus: a fixed tail appended
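Also: lentivirally expressed fusions sorted by FACS into six bins by GFP to DsRed ratio, PSI derived from sequencing read proportions per bin multiplied by bin number.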

Protein stability index, by site and new letter:
G20: D 2.19, P 2.27, I 1.66, M 1.47, L 1.74, T 2.12, R 1.9, H 1.92, C 2.59, W 1.56, V 2.35, S 1.99, E 2.36, K 1.93, F 1.67, Q 1.95, A 1.89, Y 2.28, N 2.03
K23: R 2.18, A 2.06, E 2.05, I 2.17, D 2.4, N 1.89, F 1.82, W 1.94, V 2.06, S 2.25, T 2.02, L 1.63, Y 1.43, M 1.91, G 1.53, H 2.13, C 1.82, Q 1.64, P 2.06
A21: L 1.97, H 1.98, Y 1.48, N 1.84, W 1.54, C 2.38, I 1.47, G 2.26, Q 2.23, P 2.22, R 2.16, K 1.98, M 2.33, S 2.02, T 2.07, D 2.08, F 2.1, V 1.85, E 1.83
E18: W 1.98, Y 1.71, R 1.86, D 2.11, P 1.83, A 2.12, S 1.63, N 1.87, Q 1.93, T 1.68, F 1.75, L 1.7, I 1.4, M 1.83, H 1.81, V 2.28, K 1.86, G 1.78, C 2.3
Q17: G 1.84, W 1.74, A 1.85, Y 2.19, C 2.22, V 1.67, D 1.78
